{
  "source": "patent EP4663654A1",
  "about": "(Hangzhou Sciwind Biosciences Co., Ltd., dated 2025)",
  "binders": {"B1": {"name": "polypeptide derivative M1 (peptide)", "peptide": "{C20 diacid-γGlu}-ASELSTAALGRLADFLRHSSNNLKPILPPTNVGSNT[Hyp]-NH2", "SMILES": "CC[C@H](C)[C@H](NC(=O)[C@@H]1CCCN1C(=O)[C@H](CCCCN)NC(=O)[C@H](CC(C)C)NC(=O)[C@H](CC(N)=O)NC(=O)[C@H](CC(N)=O)NC(=O)[C@H](CO)NC(=O)[C@H](CO)NC(=O)[C@H](Cc1c[nH]cn1)NC(=O)[C@H](CCCNC(=N)N)NC(=O)[C@H](CC(C)C)NC(=O)[C@H](Cc1ccccc1)NC(=O)[C@H](CC(=O)O)NC(=O)[C@H](C)NC(=O)[C@H](CC(C)C)NC(=O)[C@H](CCCNC(=N)N)NC(=O)CNC(=O)[C@H](CC(C)C)NC(=O)[C@H](C)NC(=O)[C@H](C)NC(=O)[C@@H](NC(=O)[C@H](CO)NC(=O)[C@H](CC(C)C)NC(=O)[C@H](CCC(=O)O)NC(=O)[C@H](CO)NC(=O)[C@H](C)NC(=O)CC[C@H](NC(=O)CCCCCCCCCCCCCCCCCCC(=O)O)C(=O)O)[C@@H](C)O)C(=O)N[C@@H](CC(C)C)C(=O)N1CCC[C@H]1C(=O)N1CCC[C@H]1C(=O)N[C@H](C(=O)N[C@@H](CC(N)=O)C(=O)N[C@H](C(=O)NCC(=O)N[C@@H](CO)C(=O)N[C@@H](CC(N)=O)C(=O)N[C@H](C(=O)N1C[C@H](O)C[C@H]1C(N)=O)[C@@H](C)O)C(C)C)[C@@H](C)O"}, "B2": {"name": "polypeptide derivative M5 (peptide)", "peptide": "{C20 diacid-γGlu}-ASQLSTAATQRLADFLRHSSNNLKPILPPTNVGSNT[Hyp]-NH2", "SMILES": "CC[C@H](C)[C@H](NC(=O)[C@@H]1CCCN1C(=O)[C@H](CCCCN)NC(=O)[C@H](CC(C)C)NC(=O)[C@H](CC(N)=O)NC(=O)[C@H](CC(N)=O)NC(=O)[C@H](CO)NC(=O)[C@H](CO)NC(=O)[C@H](Cc1c[nH]cn1)NC(=O)[C@H](CCCNC(=N)N)NC(=O)[C@H](CC(C)C)NC(=O)[C@H](Cc1ccccc1)NC(=O)[C@H](CC(=O)O)NC(=O)[C@H](C)NC(=O)[C@H](CC(C)C)NC(=O)[C@H](CCCNC(=N)N)NC(=O)[C@H](CCC(N)=O)NC(=O)[C@@H](NC(=O)[C@H](C)NC(=O)[C@H](C)NC(=O)[C@@H](NC(=O)[C@H](CO)NC(=O)[C@H](CC(C)C)NC(=O)[C@H](CCC(N)=O)NC(=O)[C@H](CO)NC(=O)[C@H](C)NC(=O)CC[C@H](NC(=O)CCCCCCCCCCCCCCCCCCC(=O)O)C(=O)O)[C@@H](C)O)[C@@H](C)O)C(=O)N[C@@H](CC(C)C)C(=O)N1CCC[C@H]1C(=O)N1CCC[C@H]1C(=O)N[C@H](C(=O)N[C@@H](CC(N)=O)C(=O)N[C@H](C(=O)NCC(=O)N[C@@H](CO)C(=O)N[C@@H](CC(N)=O)C(=O)N[C@H](C(=O)N1C[C@H](O)C[C@H]1C(N)=O)[C@@H](C)O)C(C)C)[C@@H](C)O"}, "B3": {"name": "polypeptide derivative M53 (peptide)", "peptide": "{C20 diacid-γGlu}-ASQLSTAATQRLADFLRHSSKNLKPILPPTNVGSNT[Hyp]-NH2", "SMILES": "CC[C@H](C)[C@H](NC(=O)[C@@H]1CCCN1C(=O)[C@H](CCCCN)NC(=O)[C@H](CC(C)C)NC(=O)[C@H](CC(N)=O)NC(=O)[C@H](CCCCN)NC(=O)[C@H](CO)NC(=O)[C@H](CO)NC(=O)[C@H](Cc1c[nH]cn1)NC(=O)[C@H](CCCNC(=N)N)NC(=O)[C@H](CC(C)C)NC(=O)[C@H](Cc1ccccc1)NC(=O)[C@H](CC(=O)O)NC(=O)[C@H](C)NC(=O)[C@H](CC(C)C)NC(=O)[C@H](CCCNC(=N)N)NC(=O)[C@H](CCC(N)=O)NC(=O)[C@@H](NC(=O)[C@H](C)NC(=O)[C@H](C)NC(=O)[C@@H](NC(=O)[C@H](CO)NC(=O)[C@H](CC(C)C)NC(=O)[C@H](CCC(N)=O)NC(=O)[C@H](CO)NC(=O)[C@H](C)NC(=O)CC[C@H](NC(=O)CCCCCCCCCCCCCCCCCCC(=O)O)C(=O)O)[C@@H](C)O)[C@@H](C)O)C(=O)N[C@@H](CC(C)C)C(=O)N1CCC[C@H]1C(=O)N1CCC[C@H]1C(=O)N[C@H](C(=O)N[C@@H](CC(N)=O)C(=O)N[C@H](C(=O)NCC(=O)N[C@@H](CO)C(=O)N[C@@H](CC(N)=O)C(=O)N[C@H](C(=O)N1C[C@H](O)C[C@H]1C(N)=O)[C@@H](C)O)C(C)C)[C@@H](C)O"}, "B4": {"name": "polypeptide derivative M54 (peptide)", "peptide": "{C20 diacid-γGlu}-ASQLSTAATQRLADFLRHSSRNLKPILPPTNVGSNT[Hyp]-NH2", "SMILES": "CC[C@H](C)[C@H](NC(=O)[C@@H]1CCCN1C(=O)[C@H](CCCCN)NC(=O)[C@H](CC(C)C)NC(=O)[C@H](CC(N)=O)NC(=O)[C@H](CCCNC(=N)N)NC(=O)[C@H](CO)NC(=O)[C@H](CO)NC(=O)[C@H](Cc1c[nH]cn1)NC(=O)[C@H](CCCNC(=N)N)NC(=O)[C@H](CC(C)C)NC(=O)[C@H](Cc1ccccc1)NC(=O)[C@H](CC(=O)O)NC(=O)[C@H](C)NC(=O)[C@H](CC(C)C)NC(=O)[C@H](CCCNC(=N)N)NC(=O)[C@H](CCC(N)=O)NC(=O)[C@@H](NC(=O)[C@H](C)NC(=O)[C@H](C)NC(=O)[C@@H](NC(=O)[C@H](CO)NC(=O)[C@H](CC(C)C)NC(=O)[C@H](CCC(N)=O)NC(=O)[C@H](CO)NC(=O)[C@H](C)NC(=O)CC[C@H](NC(=O)CCCCCCCCCCCCCCCCCCC(=O)O)C(=O)O)[C@@H](C)O)[C@@H](C)O)C(=O)N[C@@H](CC(C)C)C(=O)N1CCC[C@H]1C(=O)N1CCC[C@H]1C(=O)N[C@H](C(=O)N[C@@H](CC(N)=O)C(=O)N[C@H](C(=O)NCC(=O)N[C@@H](CO)C(=O)N[C@@H](CC(N)=O)C(=O)N[C@H](C(=O)N1C[C@H](O)C[C@H]1C(N)=O)[C@@H](C)O)C(C)C)[C@@H](C)O"}, "B5": {"name": "polypeptide derivative M55 (peptide)", "peptide": "{C20 diacid-γGlu}-ASQLSTAATQRLADFLRHSSN[αMeN]LKPILPPTNVGSNT[Hyp]-NH2"}, "B6": {"name": "polypeptide derivative M6 (peptide)", "peptide": "{C20 diacid-γGlu}-ASQLSTAATQRLADFLRHFTDRDRDILPPTNVGSNTP-NH2", "SMILES": "CC[C@H](C)[C@H](NC(=O)[C@H](CC(=O)O)NC(=O)[C@H](CCCNC(=N)N)NC(=O)[C@H](CC(=O)O)NC(=O)[C@H](CCCNC(=N)N)NC(=O)[C@H](CC(=O)O)NC(=O)[C@@H](NC(=O)[C@H](Cc1ccccc1)NC(=O)[C@H](Cc1c[nH]cn1)NC(=O)[C@H](CCCNC(=N)N)NC(=O)[C@H](CC(C)C)NC(=O)[C@H](Cc1ccccc1)NC(=O)[C@H](CC(=O)O)NC(=O)[C@H](C)NC(=O)[C@H](CC(C)C)NC(=O)[C@H](CCCNC(=N)N)NC(=O)[C@H](CCC(N)=O)NC(=O)[C@@H](NC(=O)[C@H](C)NC(=O)[C@H](C)NC(=O)[C@@H](NC(=O)[C@H](CO)NC(=O)[C@H](CC(C)C)NC(=O)[C@H](CCC(N)=O)NC(=O)[C@H](CO)NC(=O)[C@H](C)NC(=O)CC[C@H](NC(=O)CCCCCCCCCCCCCCCCCCC(=O)O)C(=O)O)[C@@H](C)O)[C@@H](C)O)[C@@H](C)O)C(=O)N[C@@H](CC(C)C)C(=O)N1CCC[C@H]1C(=O)N1CCC[C@H]1C(=O)N[C@H](C(=O)N[C@@H](CC(N)=O)C(=O)N[C@H](C(=O)NCC(=O)N[C@@H](CO)C(=O)N[C@@H](CC(N)=O)C(=O)N[C@H](C(=O)N1CCC[C@H]1C(N)=O)[C@@H](C)O)C(C)C)[C@@H](C)O"}, "B7": {"name": "polypeptide derivative M7 (peptide)", "peptide": "{C20 diacid-γGlu}-ASQLSTAVTQRLADFLRHSSNNLKPILPPTNVGSNT[Hyp]-NH2", "SMILES": "CC[C@H](C)[C@H](NC(=O)[C@@H]1CCCN1C(=O)[C@H](CCCCN)NC(=O)[C@H](CC(C)C)NC(=O)[C@H](CC(N)=O)NC(=O)[C@H](CC(N)=O)NC(=O)[C@H](CO)NC(=O)[C@H](CO)NC(=O)[C@H](Cc1c[nH]cn1)NC(=O)[C@H](CCCNC(=N)N)NC(=O)[C@H](CC(C)C)NC(=O)[C@H](Cc1ccccc1)NC(=O)[C@H](CC(=O)O)NC(=O)[C@H](C)NC(=O)[C@H](CC(C)C)NC(=O)[C@H](CCCNC(=N)N)NC(=O)[C@H](CCC(N)=O)NC(=O)[C@@H](NC(=O)[C@@H](NC(=O)[C@H](C)NC(=O)[C@@H](NC(=O)[C@H](CO)NC(=O)[C@H](CC(C)C)NC(=O)[C@H](CCC(N)=O)NC(=O)[C@H](CO)NC(=O)[C@H](C)NC(=O)CC[C@H](NC(=O)CCCCCCCCCCCCCCCCCCC(=O)O)C(=O)O)[C@@H](C)O)C(C)C)[C@@H](C)O)C(=O)N[C@@H](CC(C)C)C(=O)N1CCC[C@H]1C(=O)N1CCC[C@H]1C(=O)N[C@H](C(=O)N[C@@H](CC(N)=O)C(=O)N[C@H](C(=O)NCC(=O)N[C@@H](CO)C(=O)N[C@@H](CC(N)=O)C(=O)N[C@H](C(=O)N1C[C@H](O)C[C@H]1C(N)=O)[C@@H](C)O)C(C)C)[C@@H](C)O"}},
  "note": "Starred links: 1 amine or outer side, 2 acyl side, 3 side chain; linkers in the order of their positions; H or OH if unused. Non-standard residues stand in square brackets, D forms with d. *: point of attachment. C20 diacid = O=C(O)CCCCCCCCCCCCCCCCCCC(=O)*; γGlu = O=C(O)[C@H](CCC(=O)[*:2])N[*:1]; Hyp = O=C(O)[C@@H]1C[C@@H](O)CN1; αMeN = C[C@](N)(CC(N)=O)C(=O)O",
  "data": [
    {"biological_target": "T1, human amylin receptor (AMY3) on CHO-K1/Ga15/AMY3 amylin receptor/CRE-luc cells (human, UniProt P30988 25-474; O60896 24-148)", "T1 sequence (looked up) 1": "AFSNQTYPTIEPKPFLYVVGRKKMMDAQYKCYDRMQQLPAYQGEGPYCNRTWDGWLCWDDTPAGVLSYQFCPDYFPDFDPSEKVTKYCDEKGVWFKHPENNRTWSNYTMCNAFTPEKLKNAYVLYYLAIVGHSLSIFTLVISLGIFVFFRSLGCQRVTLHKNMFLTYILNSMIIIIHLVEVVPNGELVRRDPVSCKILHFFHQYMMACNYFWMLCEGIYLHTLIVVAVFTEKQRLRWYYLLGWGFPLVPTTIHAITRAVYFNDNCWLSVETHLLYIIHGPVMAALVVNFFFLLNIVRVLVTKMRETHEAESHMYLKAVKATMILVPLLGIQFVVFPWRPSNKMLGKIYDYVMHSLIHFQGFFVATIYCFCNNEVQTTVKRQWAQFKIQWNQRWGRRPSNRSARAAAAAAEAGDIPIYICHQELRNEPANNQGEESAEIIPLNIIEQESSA", "T1 sequence (looked up) 2": "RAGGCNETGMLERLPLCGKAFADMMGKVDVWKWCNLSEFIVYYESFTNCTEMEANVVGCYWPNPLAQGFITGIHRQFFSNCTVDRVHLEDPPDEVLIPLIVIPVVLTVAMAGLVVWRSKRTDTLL", "test": "cell-based or functional assay", "units": {"EC50/nM, CRE-luciferase reporter in amylin receptor/CRE-luc CHO cells": "nM", "Relative activity (the EC50 ratio of Cagrilintide to the compound)": "%"}, "values": [
      {"binder": "B1", "EC50/nM, CRE-luciferase reporter in amylin receptor/CRE-luc CHO cells": 0.053, "Relative activity (the EC50 ratio of Cagrilintide to the compound)": 49},
      {"binder": "B2", "EC50/nM, CRE-luciferase reporter in amylin receptor/CRE-luc CHO cells": 0.031, "Relative activity (the EC50 ratio of Cagrilintide to the compound)": 84},
      {"binder": "B3", "EC50/nM, CRE-luciferase reporter in amylin receptor/CRE-luc CHO cells": 0.08, "Relative activity (the EC50 ratio of Cagrilintide to the compound)": 200},
      {"binder": "B4", "EC50/nM, CRE-luciferase reporter in amylin receptor/CRE-luc CHO cells": 0.06, "Relative activity (the EC50 ratio of Cagrilintide to the compound)": 267},
      {"binder": "B5", "EC50/nM, CRE-luciferase reporter in amylin receptor/CRE-luc CHO cells": 0.03, "Relative activity (the EC50 ratio of Cagrilintide to the compound)": 233},
      {"binder": "B6", "EC50/nM, CRE-luciferase reporter in amylin receptor/CRE-luc CHO cells": 0.042, "Relative activity (the EC50 ratio of Cagrilintide to the compound)": 62},
      {"binder": "B7", "EC50/nM, CRE-luciferase reporter in amylin receptor/CRE-luc CHO cells": 0.066, "Relative activity (the EC50 ratio of Cagrilintide to the compound)": 39}
    ]}
  ]
}
